Positions count from the first letter of the chain named.
T1: VEGFR-3-Fc (UniProt P35916 25-328)
T1 construct: domain: first three Ig domains; conditioned supernatant of 293T cells; also called VEGFR-3-Fc fusion protein; not shown: Fc fragment of the pIg vector
T1 sequence (looked up): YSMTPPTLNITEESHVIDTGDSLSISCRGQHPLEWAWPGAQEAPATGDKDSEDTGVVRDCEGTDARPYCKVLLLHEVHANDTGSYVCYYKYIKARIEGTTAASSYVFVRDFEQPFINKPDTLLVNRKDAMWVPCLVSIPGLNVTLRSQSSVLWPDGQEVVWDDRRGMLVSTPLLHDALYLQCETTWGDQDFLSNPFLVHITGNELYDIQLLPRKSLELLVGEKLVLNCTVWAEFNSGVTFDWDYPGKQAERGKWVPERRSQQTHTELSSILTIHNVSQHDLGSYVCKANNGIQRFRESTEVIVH

B1: 41-6 (ligand)
chain: AHYNTEILKFMDVYQRSYCHPREVCIDVGKEYPDEIEYIFKPSCVPLMRCGGCCNDEGLECMNTSTSYLSKTLFEIKPHQGQHIGEMSFANHTSCRCMSKLD
B2: 44-8 (ligand)
chain: B1 chain with Y32F, P33G, D34V, E35A, I36T, E37N, Y38T, I39F, D56S, E60Q
B3: 21-4 (ligand)
chain: AHYNTEILKSIDNEWRKTQCMPREVCIDVGKEYPDEIEYIFKPSCVPLMRCGGCCNSEGLQCMNTSTSYLSKTLFEIKPHQGQHIGEMSFLQHNKCECRPKKD
B4: 42-10 (ligand)
chain: AHYNTEILKFMDVYQRSYCHPREVCIDVGKEFGVATNTFFKPPCVSVYRCGGCCNDEGLECMNTSTSYLSKTLFEITVPLSQGPKPVTISFLQHNKCECRPKKD
B5: 44-10 (ligand)
chain: B4 chain with P43S, S46P, V47L, Y48M
B6: 42-12 (ligand)
chain: B4 chain with D56S, E60Q
B7: 44-12 (ligand)
chain: B4 chain with P43S, S46P, V47L, Y48M, D56S, E60Q
B8: 42-6 (ligand)
chain: AHYNTEILKFMDVYQRSYCHPREVCIDVGKEFGVATNTFFKPPCVSVYRCGGCCNDEGLECMNTSTSYLSKTLFEIKPHQGQHIGEMSFANHTSCRCMSKLD
B9: 42-8 (ligand)
chain: B8 chain with D56S, E60Q
B10: 44-2 (ligand)
chain: AHYNTEILKFMDVYQRSYCHPREVCIDVGKEFGVATNTFFKPSCVPLMRCGGCCNDEGLECMNTSTSYLSKTLFEIKPHQGQHIGEMSFLQHNKCECRPKKD
B11: 44-4 (ligand)
chain: B10 chain with D56S, E60Q
B12: 41-14 (ligand)
chain: AHYNTEILKFMDVYQRSYCHPREVCIDVGKEYPDEIEYIFKPSCVPLMRCGGCCNDEGLECMNTSTSYLSKTLFEITVPLSQGPKPVTISFANHTSCRCMSKLD
B13: 41-16 (ligand)
chain: B12 chain with D56S, E60Q
B14: 43-14 (ligand)
chain: B12 chain with S43P, P46S, L47V, M48Y
B15: 43-16 (ligand)
chain: B12 chain with S43P, P46S, L47V, M48Y, D56S, E60Q
B16: 42-9 (ligand)
chain: AHYNTEILKFMDVYQRSYCHPREVCIDVGKEFGVATNTFFKPPCVSVYRCGGCCNDEGLECVPTEESNITMQIMRITVPLSQGPKPVTISFLQHNKCECRPKKD
B17: 42-15 (ligand)
chain: B16 chain with D56S, E60Q, L92A, Q93N, N95T, K96S, E98R, R100M, P101S, K103L
B18: 42-13 (ligand)
chain: B16 chain with L92A, Q93N, N95T, K96S, E98R, R100M, P101S, K103L
B19: 42-11 (ligand)
chain: B16 chain with D56S, E60Q
B20: 34-15 (ligand)
chain: GQNHHEVVKSIDNEWRKTQCMPIETLVDIFQEFGVATNTFFKPSCVPLMRCGGCCNSEGLQCVPTEESNITMQIMRITVPLSQGPKPVTISFANHTSCRCMSKLD
B21: 41-9 (ligand)
chain: AHYNTEILKFMDVYQRSYCHPREVCIDVGKEYPDEIEYIFKPSCVPLMRCGGCCNDEGLECVPTEESNITMQIMRITVPLSQGPKPVTISFLQHNKCECRPKKD
B22: 43-9 (ligand)
chain: B21 chain with S43P, P46S, L47V, M48Y
B23: 43-11 (ligand)
chain: B21 chain with S43P, P46S, L47V, M48Y, D56S, E60Q
B24: 44-11 (ligand)
chain: B16 chain with P43S, S46P, V47L, Y48M, D56S, E60Q
B25: 44-9 (ligand)
chain: B16 chain with P43S, S46P, V47L, Y48M
B26: 41-11 (ligand)
chain: B21 chain with D56S, E60Q
B27: 42-1 (ligand)
chain: AHYNTEILKFMDVYQRSYCHPREVCIDVGKEFGVATNTFFKPPCVSVYRCGGCCNDEGLECVPTEESNITMQIMRIKPHQGQHIGEMSFLQHNKCECRPKKD
B28: 21-3 (ligand)
chain: AHYNTEILKSIDNEWRKTQCMPREVCIDVGKEYPDEIEYIFKPSCVPLMRCGGCCNSEGLQCVPTEESNITMQIMRIKPHQGQHIGEMSFLQHNKCECRPKKD

Target: T2, VEGFR-2-Fc (UniProt P35968 20-322)
T2 construct: domain: first 3 Ig domains; conditioned supernatant of 293T cells; also called VEGFR-2-Fc fusion protein; not shown: Fc fragment of the pIg vector
T2 sequence (P35968 20-322): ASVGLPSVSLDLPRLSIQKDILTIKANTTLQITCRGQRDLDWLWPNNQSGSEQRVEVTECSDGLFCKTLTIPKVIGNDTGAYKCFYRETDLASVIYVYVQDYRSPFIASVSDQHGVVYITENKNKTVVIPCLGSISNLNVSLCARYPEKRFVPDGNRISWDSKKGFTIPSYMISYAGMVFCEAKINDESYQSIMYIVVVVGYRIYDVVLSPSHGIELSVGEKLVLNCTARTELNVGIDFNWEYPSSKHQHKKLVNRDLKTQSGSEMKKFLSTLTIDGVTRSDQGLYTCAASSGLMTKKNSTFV
Test: receptor-Fc IP
Outline: (§1)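 fusion protein at 400 ng/ml in an IP mix (PBS, 1.5% BSA, 0.06% Tween 20, 3 μg/ml heparin) was combined with sample supernatant at a 1:2 ratio. Bound ligand captured by immunoprecipitation with pentahistidine antibody.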

| Binder | binding result |
| --- | --- |
| B1 | no binding |
| B2 | no binding |
| B3 | no binding |
| B4 | no binding |
| B5 | no binding |
| B6 | no binding |
| B7 | no binding |
| B8 | no binding |
| B9 | no binding |
| B10 | no binding |
| B11 | no binding |
| B12 | no binding |
| B13 | no binding |
| B14 | no binding |
| B15 | no binding |
| B16 | no binding |
| B17 | no binding |
| B18 | no binding |
| B19 | no binding |
| B20 | no binding |
| B21 | no binding |
| B22 | no binding |
| B23 | no binding |
| B24 | no binding |
| B25 | no binding |
| B26 | no binding |
| B27 | no binding |
| B28 | no binding |

Target: T1, VEGFR-3-Fc
Test: receptor-Fc IP
Outline: as §1

| Binder | binding result |
| --- | --- |
| B1 | no binding |
| B2 | no binding |
| B3 | no binding |
| B4 | no binding |
| B5 | no binding |
| B6 | no binding |
| B7 | no binding |
| B8 | no binding |
| B9 | no binding |
| B10 | no binding |
| B11 | no binding |
| B12 | no binding |
| B13 | no binding |
| B14 | no binding |
| B15 | no binding |
| B16 | no binding |
| B17 | no binding |
| B18 | no binding |
| B19 | no binding |
| B20 | no binding |
| B21 | no binding |
| B22 | no binding |
| B23 | no binding |
| B24 | no binding |
| B25 | no binding |
| B26 | no binding |
| B27 | no binding |
| B28 | no binding |

Target: T3, VEGFR-1-Fc (UniProt P17948 27-338)
T3 construct: domain: first three Ig domains; expressed in Drosophila S2 cells, purified on Protein A sepharose; also called VEGFR-1-Fc fusion protein; not shown: Fc fragment from the Signal-pIgPlus vector
T3 sequence (P17948 27-338): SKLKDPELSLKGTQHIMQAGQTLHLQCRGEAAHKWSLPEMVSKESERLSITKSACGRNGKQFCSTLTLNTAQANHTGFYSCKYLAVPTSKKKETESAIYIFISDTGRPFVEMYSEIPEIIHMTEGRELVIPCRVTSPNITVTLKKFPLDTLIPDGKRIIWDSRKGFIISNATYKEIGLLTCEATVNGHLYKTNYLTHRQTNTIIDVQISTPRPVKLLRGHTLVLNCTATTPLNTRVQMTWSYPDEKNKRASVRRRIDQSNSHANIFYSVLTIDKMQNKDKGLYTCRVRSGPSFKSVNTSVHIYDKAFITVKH
Test: receptor-Fc IP
Outline: as §1

| Binder | binding result |
| --- | --- |
| B1 | no binding |
| B2 | no binding |
| B3 | no binding |
| B4 | no binding |
| B5 | no binding |
| B6 | no binding |
| B7 | no binding |
| B8 | no binding |
| B9 | no binding |
| B10 | no binding |
| B11 | no binding |
| B12 | no binding |
| B13 | no binding |
| B14 | no binding |
| B15 | no binding |
| B16 | no binding |
| B17 | no binding |
| B18 | no binding |
| B19 | no binding |
| B20 | no binding |
| B21 | no binding |
| B22 | no binding |
| B23 | no binding |
| B24 | no binding |
| B25 | no binding |
| B26 | no binding |
| B27 | no binding |
| B28 | no binding |

Reference: patent US20080058263A1 (published 2008)
